Reference: US20160145299A1 (CENTRE NATIONAL DE LA RECHERCHE SCIENTIFIQUE, published 2016)
Where no end group is shown, it is not given here.

Biological target: cdk2/cyclin A complex (UniProt P24941 1-298; P20248 1-432)
Assay: cell-based or functional assay

KKQVRMAHLVLT (also: fluorescent label Cy5 or FITC, position not given here) [Peptide targeting CDK/Cyclin C4: KKQVRMAHLVLT (SEQ ID No: 8)]
IC50 of cell proliferation, Hela, C4 delivered with Short6: 80 nM | IC50 of cell proliferation, Hela, C4 delivered with short7: 45 nM | IC50 of cell proliferation, Hela, C4 delivered with short11: 150 nM | IC50 of cell proliferation, MCF7, C4 delivered with Short6: 50 nM | IC50 of cell proliferation, MCF7, C4 delivered with short7: 80 nM | IC50 of cell proliferation, MCF7, C4 delivered with short11: 200 nM
